Reference: paper PMC9763686 (The Journal of Biological Chemistry, 2022)

Columns and labels:
Assay in all cases: ELISA
Settings in all cases: one partner purified
[1] = target: IBV-NP (nucleoprotein of influenza B virus B/Yamagata/16/1988) (Influenza B virus B/Yamagata/16/1988, UniProt Q82662, strain)
[2] = target: H1N1-NP (nucleoprotein of A/Guangzhou/01/2009 (H1N1)) (Influenza A virus A/Guangzhou/01/2009 …, UniProt C3W5S2, strain)
[3] = target: H9N2-NP fragment 1 to 1308 bp (N436 amino acids) (Influenza A virus …, UniProt W5RGA6)
[4] = target: H9N2-NP fragment 1 to 1182 bp (N394 amino acids) (Influenza A virus …, UniProt W5RGA6)
[5] = target: H9N2-NP fragment 1 to 1215 bp (N405 amino acids) (Influenza A virus …, UniProt W5RGA6)
[6] = target: H9N2-NP fragment 1 to 1167 bp (N389 amino acids) (Influenza A virus …, UniProt W5RGA6)

Row | Binder | binding result [1] | binding result [2] | binding result [3] | binding result [4] | binding result [5] | binding result [6]
1 | H9N2-NP-Nb18-HRP (VHH) VHH: ESGGGSVQAGGSLRLSCAASHTYGTYAMAWFRQAPGEEREGVAAIDSDGETIYADSVKGRFTISRDNAKNILYLQMNSLKPEDTAMYYCAEDLRGVWYGRLELRPGRFTYWGQGTQVTVSS | no binding | binds | – | – | – | –
2 | H9N2-NP-Nb42-HRP (VHH) VHH: ESGGESVQAGGSLRLSCATSGFTYNRSYCMAWFRQVLGKEREGVAVIDRVGGSTYYADSVKGRFTVSQDNAKTTLYLQMNSLTPEDTAMYYCAAVSTLMTTCQGLLAGHSQRYAYWGQGTQVTVSS | no binding | binds | – | – | – | –
3 | H9N2-NP-Nb16-HRP (VHH) VHH: ESGGGSVQAGGSLRLSCAASGYTYSAYCMGWFRQAPGKEREEVASIDSDFGTNYADSVKGRFTISKDNPKNTLYLQMNNLKAEDTAMYYCAALKYSSSLCLDALPSRANYWGQGTQVTVSS | no binding | binds | – | – | – | –
4 | H9N2-NP-Nb5-HRP (VHH) VHH: ESGGGLVQPGGSLRLSCAASGFPFSDYDMNWARQAPGKELEDVSAISSGGTYTYYADSVKGRFTISRDNAKNTLYLQLNSLQTEDTAMYYCGRGWTSGYKSRGQGTQVTVSS | no binding | binds | binds | binds | binds | binds
5 | H9N2-NP-Nb53-HRP (VHH) VHH: ESGGGSVQAGGSLRLSCAASGYTFSNVYMGWFRQAPGKEREGVAAIDRDGRTTYGDSVKGRFTISQDNAKNILYLQMSSLKPEDTATYYCAADPGYVELISEPLAGIWYRYWGQGTQVTVSS | no binding | binds | – | – | – | –
